As a reminder, the Kd is a measure of binding affinity in units of concentration. What is called koff is the rate constant with which the complex falls apart. The term kon denotes the rate constant with which the complex forms.

The target in experiment [1] is T1, huZIP12-ECD-GST (human, UniProt Q504Y0 24-202).
T1 construct: also called hZIP12-ECD-GST; human ZIP12-ECD-GST; not shown: glutathione S-transferase (GST) tag
Nature of the experiment: SPR single cycle kinetics, mAb captured on protein A, 3.12-800 nM huZIP12-ECD-GST. How it is done:
(§1) Single Cycle Kinetics (SCK) involves first capturing the mAb onto the protein A sensor surface and then sequentially injecting a series of concentrations of huZIP12-ECD-GST over the surface starting at the lowest concentration and ending with the highest concentration. The final concentration is followed by a dissociation phase where buffer only is passed across the surface followed by regeneration, where the remaining bound huZIP12-ECD-GST is removed from the surface by injection of a 10 mM Glycine pH 1.5 and 50 mM NaOH solution. The SCK is repeated for each monoclonal antibody providing duplicate data and the kinetics of each interaction is evaluated by the Biacore software.
Referring to FIG. 6, there are shown the kinetic parameters obtained for all antibody variants when screened with the 3.12 nM to 800 nM huZIP12-ECD-GST. […] Affinity.

For experiment [2], the target named is T1, huZIP12-ECD-GST. The experiment in a line: SPR single cycle kinetics (Biacore): mAb captured on protein A, ZIP12-ECD-GST injected; average data.
The target of experiment [3] is T2, cynomolgus monkey ZIP12-ECD-GST (cynomolgus monkey, UniProt Q95KA5 24-207).
T2 construct: extracellular domain; also called cyno ZIP12 fusion protein; cynomolgus monkey ZIP12-GST-ECD; not shown: glutathione S-transferase (GST) tag
The description is as above.

The target of experiment [4] is T1, huZIP12-ECD-GST. Nature of the experiment: SPR single cycle kinetics (Biacore): mAb captured on protein A, huZIP12-ECD-GST injected at 3.12-800 nM.
The target of experiment [5] is T1, huZIP12-ECD-GST. Nature of the experiment: SPR single cycle kinetics (Biacore): mAb captured on protein A, huZIP12-ECD-GST injected at 2.34-600 nM, extended dissociation. How it is done:
as §1
A selection of the higher affinity antibody variants were re-tested at a lower concentration series with an extended dissociation time with the objective of obtaining a better assessment of the binding kinetics. Referring now to FIG. 7, there are shown the data for the monoclonal antibodies that were re-tested to optimise the binding kinetic data. Once again, three antibody variants, H3_W99H_L1, H3_W99HL2 and H3_W99H_VL-par, all appear to have a higher affinity than the parent antibody. The on-rate (ka), off-rate (kd) and overall affinity measurement (KD) are all improved compared to the 51B12 VH_VL_par parent antibody.
A general note: In SPR one partner is held on a chip, and binding of the other changes the refractive index at the surface.

Experiment [6] has as its target T1, huZIP12-ECD-GST. The experiment in a line: SPR single cycle kinetics, mAb captured on protein A, ZIP12-ECD-GST injected; human ZIP12-ECD-GST; Example 8 cross-species SCK (FIG. 12 average).
Excerpt: as §1, with “Surface plasmon resonance (SPR) is a label free biophysical technique that allows the direct measurement of biomolecular interactions. A single cycle kinetics (SCK) SPR direct binding assay was developed to characterise antibody binding to human, cyno, pig and canine ZIP12 fusion proteins. This assay was used to characterise the binding kinetics of the monoclonal antibody, 51B12 W99H_L1 against each of the four proteins (defined by kon, koff, KD). Single” for “Single”, “of ZIP12-ECD-GST” for “of huZIP12-ECD-GST”

Experiment [7] has as its target T2, cynomolgus monkey ZIP12-ECD-GST. The experiment in a line: SPR single cycle kinetics, mAb captured on protein A, ZIP12-ECD-GST injected; cynomolgus monkey ZIP12-ECD-GST; Example 8 cross-species SCK (FIG. 12 average).
Excerpt: as §1, with “Surface plasmon resonance (SPR) is a label free biophysical technique that allows the direct measurement of biomolecular interactions. A single cycle kinetics (SCK) SPR direct binding assay was developed to characterise antibody binding to human, cyno, pig and canine ZIP12 fusion proteins. This assay was used to characterise the binding kinetics of the monoclonal antibody, 51B12 W99H_L1 against each of the four proteins (defined by kon, koff, KD). Single” for “Single”, “of ZIP12-ECD-GST” for “of huZIP12-ECD-GST”

The target of experiment [8] is T3, HEL19 31-49 SEQ ID No: 241.
T3 construct: alpha-helical mimic
T3 peptide: CAQDCRSRGSSGQPADLLQ
Nature of the experiment: peptide-array ELISA on mimics of the human ZIP12 ECD (peroxidase conjugate, ABTS, CCD read-out); antibody concentration of this value not given. How it is done: (§2) The binding of antibody to each of the synthesized peptides was tested in a peptide-based ELISA. The peptide arrays were incubated with primary antibody solution (overnight at 4° C.). After washing, the peptide arrays were incubated with a 1/1000 dilution of an appropriate antibody peroxidase conjugate for one hour at 25° C. After washing, the peroxidase substrate 2,2′-azino-di-3-ethylbenzthiazoline sulfonate (ABTS) and […] of 3 percent H2O2 were added. After one hour, the colour development was measured. The colour development was quantified with a charge coupled device—camera and an image processing system.
(In an ELISA, binding on a coated surface is turned into a signal by an enzyme label.)

The target of experiment [9] is T4, HEL19 32-50 SEQ ID No: 242.
T4 construct: alpha-helical mimic
T4 peptide: CQDSCSRGSSGQPADLLQV
Described as above. How it is done:
as §2

The target in experiment [10] is T5, HEL19 38-56 SEQ ID No: 245.
T5 construct: alpha-helical mimic
T5 peptide: CGSSCQPADLLQVLSAGDH
Described as above. How it is done: as §2

Experiment [11] deals with T6, BETA22 31-52 SEQ ID No: 248 (not fully specified).
T6 construct: beta-turn mimic
T6 peptide: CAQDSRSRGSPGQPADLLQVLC
The description is as above. The procedure: as §2

Experiment [12] concerns the target T7, LIN15 34-48 SEQ ID No: 223.
T7 peptide: SRSRGSSGQPADLLQ
The description is as above. How it is done:
as §2

T2 sequence (Q95KA5 24-207): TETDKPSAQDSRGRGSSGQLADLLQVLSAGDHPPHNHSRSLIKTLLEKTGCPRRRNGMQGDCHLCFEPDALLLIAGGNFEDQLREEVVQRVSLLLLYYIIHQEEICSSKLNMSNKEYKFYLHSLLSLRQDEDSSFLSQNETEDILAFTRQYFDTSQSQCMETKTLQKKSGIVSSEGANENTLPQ
T1 sequence (Q504Y0 24-202): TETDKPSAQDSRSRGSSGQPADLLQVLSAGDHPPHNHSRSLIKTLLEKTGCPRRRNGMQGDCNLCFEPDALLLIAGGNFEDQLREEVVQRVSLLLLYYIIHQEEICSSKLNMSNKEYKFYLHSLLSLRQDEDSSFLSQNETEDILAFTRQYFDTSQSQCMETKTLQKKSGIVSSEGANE

B1: H3_W99H_L1 (antibody, V domains shown)
VH: QVQLVESGGGVVQPGRSLRLSCAASGFTFSDYGMHWVRQAPGKGLEWVAYISSGGTTIYYADTVKGRFTISRDNSKNTLYLQMNSLRAEDTAVYYCARHTNLYAMDYWGQGTTVTVSS
VL: DIVLTQSPDSLAVSLGERATINCRASKSVSTQGYSYMHWYQQKPGQPPKFLIYLASNLESGVPDRFSGSGSGTDFTLTISSLQAEDVAVYYCQHSREVPYTFGGGTKVEIKR
notes: Fc null human IgG1 / human kappa
In the case of B1, the Kd with huZIP12-ECD-GST [1] was approximately 0.5 nM; with huZIP12-ECD-GST [4] it was 0.533 nM; with huZIP12-ECD-GST [5], 0.314 nM; in the experiment with huZIP12-ECD-GST [6], 4.02 nM; in experiment [7] it was 6.31 nM. Moreover, the off-rate constant (koff) came out at 0.000261 s⁻¹ with huZIP12-ECD-GST [2], 0.000218 s⁻¹ in [3], 4.98e-05 s⁻¹ in the experiment with huZIP12-ECD-GST [4] and 3.14e-05 s⁻¹ with huZIP12-ECD-GST [5]. Moreover, the kon stood at 64900 M⁻¹ s⁻¹ with huZIP12-ECD-GST [2], 34600 M⁻¹ s⁻¹ in experiment [3], 93400 M⁻¹ s⁻¹ with huZIP12-ECD-GST [4] and 99900 M⁻¹ s⁻¹ with huZIP12-ECD-GST [5]. Moreover, the value was determined as 1700 in experiment [8]; 2140 in experiment [9]; 828 in experiment [10]; 2440 in experiment [11]; 1650 in experiment [12].

The values above are taken from patent publication US20260109761A1 (IP2IPO INNOVATIONS, published 2026).
